Experiments:
Assay in all cases: binding screen of Example 5; the reference itself
C3a (human) = C3a (human) (UniProt P01024)
C3b (human) = C3b (human) (UniProt P01024)
C3c = C3c (UniProt P01024)
C3d = C3d (UniProt P01024)
Factor Bb = Factor Bb (UniProt P00751)
[1] = molecular target: human complement component C3 (human) (UniProt P01024)
iC3b = iC3b (UniProt P01024)

Measured: binding relative to negative control mIgG2

Sequence of C3d (P01024 1002-1303 limits assumed): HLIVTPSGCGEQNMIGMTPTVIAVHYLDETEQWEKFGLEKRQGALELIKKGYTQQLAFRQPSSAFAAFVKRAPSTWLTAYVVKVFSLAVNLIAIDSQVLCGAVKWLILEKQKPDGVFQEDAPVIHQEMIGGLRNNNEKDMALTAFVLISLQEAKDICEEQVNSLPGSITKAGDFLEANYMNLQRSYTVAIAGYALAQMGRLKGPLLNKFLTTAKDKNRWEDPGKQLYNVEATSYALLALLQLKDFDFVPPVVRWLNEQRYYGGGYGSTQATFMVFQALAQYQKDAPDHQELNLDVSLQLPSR
Sequence of C3a (human) (P01024 672-748 limits assumed): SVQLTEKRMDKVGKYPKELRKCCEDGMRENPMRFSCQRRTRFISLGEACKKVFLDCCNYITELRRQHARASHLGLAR
Sequence of human complement component C3 (human) (P01024 23-667, chain 1 of 2): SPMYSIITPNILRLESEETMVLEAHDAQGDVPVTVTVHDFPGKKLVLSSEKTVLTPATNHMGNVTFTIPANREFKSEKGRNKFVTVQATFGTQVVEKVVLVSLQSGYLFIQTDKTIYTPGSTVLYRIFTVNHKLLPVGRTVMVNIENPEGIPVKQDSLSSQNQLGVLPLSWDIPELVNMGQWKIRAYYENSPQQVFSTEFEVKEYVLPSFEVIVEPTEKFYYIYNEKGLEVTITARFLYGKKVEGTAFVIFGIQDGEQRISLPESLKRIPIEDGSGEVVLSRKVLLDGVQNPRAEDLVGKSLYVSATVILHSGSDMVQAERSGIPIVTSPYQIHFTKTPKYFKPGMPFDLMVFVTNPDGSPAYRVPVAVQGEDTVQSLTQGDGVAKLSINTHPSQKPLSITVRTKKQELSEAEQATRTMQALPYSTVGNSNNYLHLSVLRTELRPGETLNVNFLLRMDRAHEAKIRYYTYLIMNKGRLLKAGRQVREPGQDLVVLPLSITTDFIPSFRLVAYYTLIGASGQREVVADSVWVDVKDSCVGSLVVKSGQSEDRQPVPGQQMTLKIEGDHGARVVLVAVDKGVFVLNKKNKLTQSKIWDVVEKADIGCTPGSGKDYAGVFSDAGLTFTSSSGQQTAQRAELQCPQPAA
Sequence of human complement component C3 (human) (P01024 672-1663, chain 2 of 2): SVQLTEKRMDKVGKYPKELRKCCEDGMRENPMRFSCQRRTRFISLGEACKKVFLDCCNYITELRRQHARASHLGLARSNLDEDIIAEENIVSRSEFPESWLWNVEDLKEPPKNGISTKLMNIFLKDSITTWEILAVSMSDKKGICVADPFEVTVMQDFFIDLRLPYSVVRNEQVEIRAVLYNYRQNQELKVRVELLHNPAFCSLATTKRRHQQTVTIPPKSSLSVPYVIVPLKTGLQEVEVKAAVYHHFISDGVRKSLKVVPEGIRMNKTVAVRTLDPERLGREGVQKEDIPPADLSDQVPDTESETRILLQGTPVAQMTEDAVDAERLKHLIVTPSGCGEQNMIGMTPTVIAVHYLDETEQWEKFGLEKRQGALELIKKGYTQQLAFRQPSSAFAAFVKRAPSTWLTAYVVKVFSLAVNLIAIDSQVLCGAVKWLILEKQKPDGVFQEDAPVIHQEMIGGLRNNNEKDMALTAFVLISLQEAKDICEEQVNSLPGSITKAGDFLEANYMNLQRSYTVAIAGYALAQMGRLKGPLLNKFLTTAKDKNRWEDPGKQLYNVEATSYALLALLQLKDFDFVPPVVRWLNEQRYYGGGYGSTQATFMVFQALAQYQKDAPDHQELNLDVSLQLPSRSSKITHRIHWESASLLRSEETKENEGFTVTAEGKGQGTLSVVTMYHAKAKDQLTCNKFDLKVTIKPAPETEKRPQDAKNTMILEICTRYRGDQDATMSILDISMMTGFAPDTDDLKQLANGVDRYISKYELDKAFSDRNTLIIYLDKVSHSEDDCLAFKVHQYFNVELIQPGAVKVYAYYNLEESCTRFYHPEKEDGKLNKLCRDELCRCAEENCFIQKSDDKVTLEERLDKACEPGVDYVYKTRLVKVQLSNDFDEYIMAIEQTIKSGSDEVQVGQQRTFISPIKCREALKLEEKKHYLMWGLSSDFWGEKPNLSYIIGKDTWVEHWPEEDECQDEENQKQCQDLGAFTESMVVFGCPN
Sequence of C3b (human) (P01024 23-667 limits assumed, chain 1 of 2): as the sequence (P01024 23-667, chain 1 of 2) above
Sequence of C3b (human) (P01024 749-1663 limits assumed, chain 2 of 2): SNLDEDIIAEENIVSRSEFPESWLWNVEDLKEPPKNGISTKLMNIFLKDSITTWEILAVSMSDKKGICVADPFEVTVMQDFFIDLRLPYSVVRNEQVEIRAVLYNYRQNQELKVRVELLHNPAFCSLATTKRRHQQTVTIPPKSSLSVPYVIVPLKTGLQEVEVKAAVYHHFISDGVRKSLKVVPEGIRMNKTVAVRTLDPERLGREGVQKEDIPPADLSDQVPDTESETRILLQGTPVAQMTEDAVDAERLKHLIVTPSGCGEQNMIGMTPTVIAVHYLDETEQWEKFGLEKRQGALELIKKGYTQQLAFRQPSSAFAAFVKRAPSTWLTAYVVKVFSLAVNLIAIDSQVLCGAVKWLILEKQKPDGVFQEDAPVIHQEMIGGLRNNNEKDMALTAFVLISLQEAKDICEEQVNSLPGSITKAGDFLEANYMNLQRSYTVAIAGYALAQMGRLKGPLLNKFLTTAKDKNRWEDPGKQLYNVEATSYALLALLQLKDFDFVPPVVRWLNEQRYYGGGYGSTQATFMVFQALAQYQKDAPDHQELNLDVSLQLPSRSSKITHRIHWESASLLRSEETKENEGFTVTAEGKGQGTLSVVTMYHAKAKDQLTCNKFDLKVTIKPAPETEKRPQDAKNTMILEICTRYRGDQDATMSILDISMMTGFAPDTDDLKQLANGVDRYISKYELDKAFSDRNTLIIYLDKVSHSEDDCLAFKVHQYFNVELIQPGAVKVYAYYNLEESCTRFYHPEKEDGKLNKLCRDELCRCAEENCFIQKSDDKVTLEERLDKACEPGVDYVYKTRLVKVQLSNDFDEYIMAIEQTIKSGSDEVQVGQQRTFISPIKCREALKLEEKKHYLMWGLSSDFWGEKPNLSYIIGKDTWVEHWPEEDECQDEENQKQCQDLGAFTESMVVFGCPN
Sequence of Factor Bb (P00751 260-764 limits assumed): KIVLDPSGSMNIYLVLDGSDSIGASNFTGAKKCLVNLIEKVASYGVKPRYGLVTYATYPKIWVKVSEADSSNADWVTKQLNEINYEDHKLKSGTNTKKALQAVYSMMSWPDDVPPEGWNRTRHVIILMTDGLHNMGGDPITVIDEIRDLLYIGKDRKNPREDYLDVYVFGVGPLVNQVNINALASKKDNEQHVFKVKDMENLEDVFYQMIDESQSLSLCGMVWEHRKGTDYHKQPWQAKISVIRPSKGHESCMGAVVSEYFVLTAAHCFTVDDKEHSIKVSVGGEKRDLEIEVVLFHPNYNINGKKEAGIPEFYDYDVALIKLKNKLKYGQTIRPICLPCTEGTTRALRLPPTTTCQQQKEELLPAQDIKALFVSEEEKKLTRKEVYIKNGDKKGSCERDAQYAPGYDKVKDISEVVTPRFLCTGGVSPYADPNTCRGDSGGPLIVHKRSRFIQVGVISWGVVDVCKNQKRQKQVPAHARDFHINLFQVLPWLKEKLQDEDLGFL

negative control mIgG2 antibody
0: all assays above

Reference: patent US20190322730A1
